Assay results: PMC3511314, “Functional Characterization of Two M42 Aminopeptidases Erroneously Annotated as Cellulases” (PLoS ONE, 2012)

B1: CelM (Acetivibrio thermocellus) (protein)
chain: MEEEDMFDLLKKFTGIVGVSGNEEEIREAIIEEIKECVDEIKVDTLGNLIAVKKGKGKKIMVAAHMDEIGVMVTYIDDKGFLRFSAVGGVSRYDCIGQRVKFKNGVVGAVYYEEKLEDMKNLQLSKMYIDIGARSREEALKMVNIGDVACFVGDAVLQGDTVISKALDNRSGCAVVVKAIKELKKTDNEIYFVFTVQEEVGLRGAKTAAFSIKPDIAIAVDVTMTGDTPESHPMEVKCGGGPAIKVKDRSVICHPEVRKLLEESAKRNNIPYQLEILEAGGSDPGSIHLTAGGIPSGAISIPVRYVHSPVETASMSDINNAVKLLVEAIC
notes: recombinant dodecameric CelM bearing a C-terminal hexahistidine tag
B2: TmPep1050 (Thermotoga maritima MSB8) (protein)
chain: MKELIRKLTEAFGPSGREEEVRSIILEELEGHIDGHRIDGLGNLIVWKGSGEKKVILDAHIDEIGVVVTNVDDKGFLTIEPVGGVSPYMLLGKRIRFENGTIGVVGMEGETTEERQENVRKLSFDKLFIDIGANSREEAQKMCPIGSFGVYDSGFVEVSGKYVSKAMDDRIGCAVIVEVFKRIKPAVTLYGVFSVQEEVGLVGASVAGYGVPADEAIAIDVTDSADTPKAIKRHAMRLSGGPALKVKDRASISSKRILENLIEIAEKFDIKYQMEVLTFGGTNAMGYQRTREGIPSATVSIPTRYVHSPSEMIAPDDVEATVDLLIRYLGA
notes: recombinant TmPep1050 (TM1050 ORF)

How the values were obtained:
Assay in all cases: Michaelis-Menten kinetics of pNA hydrolysis (Km)
Details in all cases: Co2+
[1] = substrate: CSCC[C@H](N)C(=O)Nc1ccc([N+](=O)[O-])cc1; assay type: biochemical, Acetivibrio thermocellus
[2] = substrate: CC[C@H](C)[C@H](N)C(=O)Nc1ccc([N+](=O)[O-])cc1; assay type: biochemical, Acetivibrio thermocellus
[3] = substrate: CC(C)C[C@H](N)C(=O)Nc1ccc([N+](=O)[O-])cc1; assay type: biochemical, Acetivibrio thermocellus
[4] = substrate: CSCC[C@H](N)C(=O)Nc1ccc([N+](=O)[O-])cc1; assay type: biochemical, Thermotoga maritima
[5] = substrate: CC[C@H](C)[C@H](N)C(=O)Nc1ccc([N+](=O)[O-])cc1; assay type: biochemical, Thermotoga maritima
[6] = substrate: CC(C)C[C@H](N)C(=O)Nc1ccc([N+](=O)[O-])cc1; assay type: biochemical, Thermotoga maritima

Protein | Km [1] | kcat [1] | kcat/Km [1] | Km [2] | kcat [2] | kcat/Km [2] | Km [3] | kcat [3] | kcat/Km [3] | Km [4] | kcat [4] | kcat/Km [4] | Km [5] | kcat [5] | kcat/Km [5] | Km [6] | kcat [6] | kcat/Km [6]
B1 | 2900 ± 150 µM | 0.072 ± 0.006 s⁻¹ | 24.8 M⁻¹ s⁻¹ | 2800 ± 200 µM | 0.11 ± 0.01 s⁻¹ | 39.3 M⁻¹ s⁻¹ | 3.5 ± 0.4 mM | 0.4 ± 0.03 s⁻¹ | 114 M⁻¹ s⁻¹ | – | – | – | – | – | – | – | – | –
B2 | – | – | – | – | – | – | – | – | – | 650 ± 50 µM | 0.009 ± 0.001 s⁻¹ | 13.8 M⁻¹ s⁻¹ | 1900 ± 200 µM | 0.059 ± 0.008 s⁻¹ | 31.1 M⁻¹ s⁻¹ | 4 ± 0.3 mM | 0.253 ± 0.019 s⁻¹ | 63.2 M⁻¹ s⁻¹
